Substrate in data set [1]: CCn1c(=NN=c2sc3cc(S(=O)(=O)O)ccc3n2CC)sc2cc(S(=O)(=O)O)ccc21
Briefly: purified protein, by the assay type. The note with it: other: ABTS 0 to 1.5 mM, 0.1 M citrate/phosphate buffer, pH 3.4, 37° C.

Substrate in data set [2]: COc1cc(/C=N/N=C/c2cc(OC)c(O)c(OC)c2)cc(OC)c1O
Briefly: Enzymatic test, oxidation of syringaldazine (SGZ) (stationary-phase kinetics). It is filed as biochemical, Podospora anserina. To be noted: other: SGZ 0 to 50 μM (diluted in methanol), citrate-phosphate 50 mM buffer, pH 7, 37° C., 530 nm. The protocol:
The enzymatic tests are carried out using a Varian spectrophotometer in a 0.1 M citrate/phosphate buffer at 37° C. in a volume of 3 ml by monitoring the oxidation of various substrates at a given wavelength as a function of time. The specific activity of the enzyme is expressed in μmol of substrates oxidized per minute and per mg of protein.
The experiments are carried out at 37° C. on a Varian spectrophotometer in a citrate-phosphate 50 mM buffer, pH 7. The concentration of SGZ, diluted in methanol, varies in the test from 0 to 50 μM. The test, initiated by the addition of enzyme, consists in monitoring the oxidation of the SGZ at 530 nm by colorimetric change (ε530nm=64 mM^−1 cm^−1).

Data set [3] is described as follows: Electrochemical measurements, enzymatic electrode with redox polymer, reduction of O2. To be noted: pH 7, in the presence of Cl. The source says: At pH 7 and in the presence of Cl, the catalytic current for the reduction of O2 is 40% greater for the electrode modified with the novel enzyme. In addition, the stability over time is 200% greater.
A short description of data set [4]: Enzymatic activity (SGZ oxidation) in the presence of NaCl. Format: biochemical. The note with it: 150 mM of NaCl, SGZ oxidation at 530 nm, 37° C., 50 mM phosphate-citrate buffer, pH 7. The protocol:
In order to verify the influence of sodium chloride (present in a physiological medium) on the activity of the laccase, increasing concentrations of NaCl were added to the activity test consisting in monitoring the oxidation, at 530 nm, of the SGZ at 37° C. in a 50 mM phosphate-citrate buffer, pH 7.

B1: Podospora anserina laccase, SEQ ID No. 3 (Podospora anserina S mat+) (protein)
chain: SVARKDWESPTYSWLYQFPLPIPPVKTPKLTVTNLVTGNPIHYYEVYINRFTQQVYPNKGPATLVGYDGISPGPTFIVERGHEAVVRFVNNASIENSVHLHGSYSRAPWDGWAEDVTMPGEFKDYYYPNQQAARFLWYHDHAFMHTAENAYFGQAGAYIIHDPAEDALNLPSGYGVHDIPLVLSSKQYNNNGSLFTTNGETDSLFGDVIHVNGQPWPYFNVEPRKYRLRFLDAAVSRTFKLYFQRQTGSSAKIPFQVIATDAGLMASPATTNDLYISMGERYEVVFDFSPFAGQNITLRNTDDVGQDDDYLHTNKVMRFIVGNTPVTDTSSIPSTLATVDWPTSDGTGVDRHFKFDRSNGEWQINGVVFADVNNRVLANVPRGKVEIWELENGGGGWSHPIHIHLVDFKVLWRSNDDGRPVYNYEAQGLKDVVWLAPNEIVRVEAHYAPWDGVYMFHCHNLIHEDHDMMAAFNVTALTDLGYNETAFRDPMEARWRAEPVTAAKFTTAAITEKIQFMAGLQPYNNVEEVLEVLDEYWATHSKRDAQDPAPKTRRMRIEGGKVKEVR
notes: purified
Turning to B1, in data set [1], the Km was 307 µM and the kcat amounted to 1372 s⁻¹. In data set [2], the Km was determined as 10.9 µM and the kcat amounted to 1.3 s⁻¹.

B2: laccase of SEQ ID No. 3: Podospora anserina laccase of SEQ ID No. 1 with an additional N-terminal serine, expressed in Pichia pastoris from the pFD56 vector (protein, listed as Podospora anserina)
chain: SVARKDWESPTYSWLYQFPLPIPPVKTPKLTVTNLVTGNPIHYYEVYINRFTQQVYPNKGPATLVGYDGISPGPTFIVERGHEAVVRFVNNASIENSVHLHGSYSRAPWDGWAEDVTMPGEFKDYYYPNQQAARFLWYHDHAFMHTAENAYFGQAGAYIIHDPAEDALNLPSGYGVHDIPLVLSSKQYNNNGSLFTTNGETDSLFGDVIHVNGQPWPYFNVEPRKYRLRFLDAAVSRTFKLYFQRQTGSSAKIPFQVIATDAGLMASPATTNDLYISMGERYEVVFDFSPFAGQNITLRNTDDVGQDDDYLHTNKVMRFIVGNTPVTDTSSIPSTLATVDWPTSDGTGVDRHFKFDRSNGEWQINGVVFADVNNRVLANVPRGKVEIWELENGGGGWSHPIHIHLVDFKVLWRSNDDGRPVYNYEAQGLKDVVWLAPNEIVRVEAHYAPWDGVYMFHCHNLIHEDHDMMAAFNVTALTDLGYNETAFRDPMEARWRAEPVTAAKFTTAAITEKIQFMAGLQPYNNVEEVLEVLDEYWATHSKRDAQDPAPKTRRMRIEGGKVKEVR
Turning to B2, in data set [3], the “catalytic current for the reduction of O2, greater than electrode with laccase of Trametes versicolor” value is recorded as 40% and the “stability over time, greater than electrode with laccase of Trametes versicolor” value is on record as 200%. Further, the “oxidation activity still exhibited in the presence of NaCl” value in data set [4] amounted to 70%.
